By Kd is commonly meant the free concentration of one partner at which half of the binding sites on the other are occupied at equilibrium, for simple one-to-one binding.

Common to all, as to experiment: FP
Assay [1] addresses importin α2 (IMPα2), Arabidopsis thaliana, recombinant (Arabidopsis thaliana, UniProt F4JL11 1-535).
The target of assay [2] is importin α3 (IMPα3), Arabidopsis thaliana, recombinant (Arabidopsis thaliana, UniProt O04294 1-531).
Assay [3] has as its target importin α1 (IMPα1), Arabidopsis thaliana, recombinant (Arabidopsis thaliana, UniProt Q96321 1-532).

Ends that are not written are not given here. * marks the point of attachment. 5‑TAMRA = 5-carboxytetramethylrhodamine, N-terminal label, CN(C)c1ccc2c(-c3ccc(C(=O)*)cc3C(=O)[O-])c3ccc(N(C)C)cc3[o+]c2c1

Sequence of importin α1 (IMPα1), Arabidopsis thaliana, recombinant (Q96321 whole entry): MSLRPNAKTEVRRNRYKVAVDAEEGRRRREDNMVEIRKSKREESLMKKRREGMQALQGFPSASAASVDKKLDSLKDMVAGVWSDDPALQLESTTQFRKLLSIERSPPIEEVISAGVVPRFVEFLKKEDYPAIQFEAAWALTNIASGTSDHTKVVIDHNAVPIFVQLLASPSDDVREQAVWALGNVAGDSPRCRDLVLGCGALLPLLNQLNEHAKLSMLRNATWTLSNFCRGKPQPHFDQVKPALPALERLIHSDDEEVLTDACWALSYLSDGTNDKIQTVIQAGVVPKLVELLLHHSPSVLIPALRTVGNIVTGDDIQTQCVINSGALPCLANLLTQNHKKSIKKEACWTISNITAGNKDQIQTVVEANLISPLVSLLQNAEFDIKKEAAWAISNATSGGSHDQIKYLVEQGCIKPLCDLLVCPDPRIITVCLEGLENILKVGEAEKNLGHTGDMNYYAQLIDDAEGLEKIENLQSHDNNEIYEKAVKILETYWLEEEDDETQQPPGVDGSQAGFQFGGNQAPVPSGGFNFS
Sequence of importin α3 (IMPα3), Arabidopsis thaliana, recombinant (O04294 whole entry): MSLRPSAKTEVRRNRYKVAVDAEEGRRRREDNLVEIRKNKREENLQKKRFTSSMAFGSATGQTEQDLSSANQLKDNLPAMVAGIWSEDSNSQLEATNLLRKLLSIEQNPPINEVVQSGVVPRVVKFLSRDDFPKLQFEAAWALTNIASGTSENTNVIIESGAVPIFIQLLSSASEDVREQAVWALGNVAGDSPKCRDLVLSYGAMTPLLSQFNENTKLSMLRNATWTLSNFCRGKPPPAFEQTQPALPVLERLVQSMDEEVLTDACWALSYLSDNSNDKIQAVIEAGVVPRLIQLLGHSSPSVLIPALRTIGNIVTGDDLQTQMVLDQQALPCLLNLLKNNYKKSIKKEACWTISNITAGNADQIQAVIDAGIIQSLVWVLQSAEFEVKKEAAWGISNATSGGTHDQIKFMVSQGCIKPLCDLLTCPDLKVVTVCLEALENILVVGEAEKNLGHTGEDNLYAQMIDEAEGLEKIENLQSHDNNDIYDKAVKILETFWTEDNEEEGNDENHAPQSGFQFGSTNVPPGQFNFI
Sequence of importin α2 (IMPα2), Arabidopsis thaliana, recombinant (F4JL11 whole entry): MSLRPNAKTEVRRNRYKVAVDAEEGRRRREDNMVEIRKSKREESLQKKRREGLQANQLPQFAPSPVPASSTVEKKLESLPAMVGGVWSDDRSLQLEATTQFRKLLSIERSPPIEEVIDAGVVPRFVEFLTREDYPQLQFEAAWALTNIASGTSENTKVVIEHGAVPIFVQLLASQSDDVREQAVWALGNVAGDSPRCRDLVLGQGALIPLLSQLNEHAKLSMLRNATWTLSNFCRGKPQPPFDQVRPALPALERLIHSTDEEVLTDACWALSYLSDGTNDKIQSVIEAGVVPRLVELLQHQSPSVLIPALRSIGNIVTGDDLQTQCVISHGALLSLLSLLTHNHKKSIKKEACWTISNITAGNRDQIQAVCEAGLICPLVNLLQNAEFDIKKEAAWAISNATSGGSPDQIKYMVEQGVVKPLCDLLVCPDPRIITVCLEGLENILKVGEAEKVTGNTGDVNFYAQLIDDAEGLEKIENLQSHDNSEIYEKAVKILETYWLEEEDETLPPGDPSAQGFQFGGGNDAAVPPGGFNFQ

B1: TAMRA‐NOP‐1 (EIN2 NLS peptide, N‐terminally labeled with 5‐TAMRA) (peptide)
peptide: {5‑TAMRA}-LKRYKRRL
B1: the Kd in assay [1] was determined as 5.8 µM; in assay [2], 5.4 µM; in assay [3], 4.6 µM.

For the origin of these results see PMC12871931 (2025).
